Data as given in patent US8178324B2, “Deracemisation of amines” (Ingenza Limited, priority 2002, dated 2012).

Tested on: CCCCCN
Assay: Colorimetric hydrogen peroxide amine oxidase assay, purified mutant enzyme (N336S)
Type: biochemical, Aspergillus niger
Conditions: other: purified N336S mutant; 30.0 °C
Experimental: The wild-type enzyme was also purified by the same protocol and the two enzymes compared for substrate specificity and enantioselectivity.
The mutated gene was also sequenced and the sequence is shown in SEQ ID NO: 2. There was a single amino acid change from the wild-type enzyme with serine replacing asparagine at position 336.
LB medium (6×300 ml) containing ampicillin (100 μg·ml^−1) in 1 L baffled flasks was inoculated with a single colony of monoamine oxidase mutant from an LB agar plate. Cultures were incubated at 30° C. for 22 hours (OD600˜3.6) then harvested and washed with phosphate buffer (50 mM, pH 8) to yield a yellow-brown pellet (11.2 g).
The pellet was resuspended in Tris/HCl buffer (25 mM, pH 7.8, 30 ml) and sonicated on ice (30 s on, 30 s off for 10 minutes). The suspension was then centrifuged (20,000 rpm, 4° C.) until clear supernatant was obtained and the supernatant dialysed against Tris/HCl buffer (25 mM, pH 7.8). […]
The spectrophotometer was blanked against assay mixture and HRP. Enzyme was added and the absorbance at 500 nm measured at 3 s intervals for a 10 minute period.
The Km values were calculated using ‘KaleidaGraph for Windows’ (Synergy Software). For calculation of the kcat, the active enzyme concentration was determined by estimating the FAD content from the absorbance at 458 nm using an extinction coefficient of 11 mM^−1 cm^−1 (see ref 12).

## mutant A. niger monoamine oxidase (N336S) (Aspergillus niger; A300V/K348M/L304V/N336S/R450G)
  Km: 400 µM
  kcat: 1.93 s⁻¹
